Test results: patent publication US20090068207A1, “Compositions Containing Beta 2-Glycoprotein I-Derived Peptides for the Prevention and/or Treatment of Vascular Disease” (Vascular Biogenics Ltd., priority 2005, published 2009)

What was measured:
[1] = system: inguinal lymph node cells; experiment: Lymph node cell proliferation (stimulation index) to sensitizing antigen β2GPI after mucosal administration; format: in vivo, mice
Protocol: Immunization: Subcutaneous immunization with human β2GPI: Human β2GPI was prepared from human plasma pool as described above. For immunization, human β2GPI was dissolved in PBS and mixed with equal volumes of Freund's incomplete adjuvant. Immunizations were performed by single subcutaneous injection of 10 μg antigen/mouse in 0.1 ml volume. Three days following the last mucosal administration of plaque associated molecules the mice received one immunization, and were sacrificed 10 days post immunization.
Proliferation assays: Mice were exposed to the tested antigen as described for assessment of atherosclerosis, and then immunized (one to three days following the last exposure) subcutaneously with 10 μg β2GPI in 0.1 ml PBS, prepared from purified human β2GPI as described above.
Proliferation was assayed ten days after immunization with the β2GPI as follows: Draining inguinal lymph nodes were prepared by mashing the tissues on 100 mesh screens. Red blood cells were lysed with cold sterile double distilled water (6 ml) for 30 seconds and 2 ml of NaCl 3.5% was added. Incomplete medium was added (10 ml), cells were centrifuged for 7 min at 1,700 rpm, resuspended in RPMI medium and counted in a haemocytometer at 1:20 dilution (10 μl cells+190 μl Trypan Blue). Proliferation was measured by the incorporation of [^3H] Thymidine into DNA in triplicate samples of 100 μl of the packed cells (1×10^6 cells/ml) in a 96 well microtiter plate. […] Thymidine (0.5 μCi/well) was added. After an additional 12-24 hours of incubation the cells were harvested and transferred to glass fiber filters using a cell harvester (Brandel) and counted using β-counter (Lumitron). Proliferation was measured by the incorporation of [^3H] thymidine into DNA during the final 12 h of incubation. The results are expressed as the stimulation index (S.I.): the ratio of the mean radioactivity (cpm) of the antigen to the mean background (cpm) obtained in the absence of the antigen. Standard deviation was always <10% of the mean cpm.
Tolerance induced by mucosal exposure to plaque-associated molecules may be mediated by suppression of specific immune responses to antigenic portions (epitopes) of these plaque associated molecules. Lymphocyte proliferation in response to mucosal (nasal and oral) exposure to human β2GPI was measured in […]. 9 male, 5 week old LDL-RD mice were divided into 3 groups. In group A (n=3) oral tolerance was induced with 100 μg/mouse β2GPI suspended in 0.1 ml PBS, administered by gavage, as described above, every other day for 5 days. In group B (n=3) nasal tolerance was induced with 10 μg/mouse β2GPI suspended in 10 μl PBS, administered intranasally as described above, every other day for 5 days. The mice in group C (n=3) received oral administration of 200 μl PBS every other day for 5 days. Immune reactivity was stimulated in all mice by immunization with human β2GPI as described above in the Materials and Methods section, one day after the last feeding. Ten days after the immunization lymph nodes were collected for assay of proliferation (as expressed in the Stimulation Index SI). All mice were fed normal chow-diet containing 4.5% fat by weight (0.02% cholesterol) and water ad libitum.

atherosclerotic lesions = experiment: Immunohistochemistry of atherosclerotic lesions (β2GPI, CD3, Mac-1); format: in vivo, mice
Description: Immunohistochemistry of atherosclerotic lesions: Immunohistochemical staining for CD3, macrophages and β2GPI content were done on aortic sinus 5-μm-thick frozen sections. Primary antibodies used for probing were rat anti-mouse CD3, rat anti-mouse Mac-1 and a polyclonal rat anti-mouse β2GPI antibodies (George et al Circulation 2000; 102:1822-7). Slides were developed with the three amino-9-ethylcarbonasole (AEC) substrate. Sections were counterstained with hematoxylin. Spleen sections were used as a positive control. Staining in the absence of 1st or 2nd antibody was used as a negative control. β2GPI presence were evaluated by its occupancy of plaque area by computerized morphometry as described previously for VCAM-1 (George et al, Circ Res. 2000; 86:1203-10).
No effect of oral β2GPI on the number of CD3 positive cells (0-5 cells/plaque in all groups; data not shown) or macrophage (Mac-1 positive) content of the fatty streaks was observed.

lymph node cells [2] = experiment: Lymph node cell proliferation (stimulation index) to oxLDL after oral administration; format: in vivo, mice
Protocol: Proliferation was measured by the incorporation of [^3H] thymidine into DNA during the final 12 h of incubation. The results were computed as stimulation index: the ratio of the mean cpm of the antigen to the mean background cpm obtained in the absence of the antigen.
[…] Three days after the final administration of peptides, the mice were immunized with OxLDL in incomplete Freund's adjuvant, as described in the Examples above, and lymph node cells assessed for antigen (OxLDL) stimulation of proliferation 10 days later. Proliferation was assessed by incorporation of thymidine, expressed as the Stimulation Index, as described.

lymph node cells [3] = experiment: Cytokine secretion by lymph node cells of tolerized mice (ELISA of conditioned medium); format: in vivo
Protocol: IFN-γ, IL-4, IL-10 and TGF-β secretion in tolerized lymph nodes: Conditioned medium was obtained from the lymph node proliferation experiments following 48 h of culture in the presence of β2GPI.

[4] = system: anti-β2GPI antibodies and antibody isotypes; experiment: Serum antibody levels and isotypes (ELISA); format: in vivo, mice; details: oral administration, subsequently immunized with β2GPI; data not shown
Protocol: Detection of anti-b2GPI antibodies and antibody isotypes: β2GPI (10 μg/ml) was coated onto flat bottom 96-well ELISA plates (Nalge-Nunc, Int. Rochester, N.Y.) by overnight incubation and the assay was performed as previously described (George et al, Circulation, 1998; 15:1108-15) IgG, IgA and IgM isotypes in the sera of β2GPI tolerant and non-tolerant mice were determined by an ELISA kit (Southern Biotechnology Associates, Birmingham, Ala., USA) according to the manufacture's instructions.
None of the orally-administered antigens induced production of antiβ2GPI antibodies (data not shown).

[5] = system: LDL receptor deficient mice; details: oral administration, U.S. Ser. No. 09/806,400; cited from earlier work

B1: β2GPI: beta2-glycoprotein I, species not stated at the place (human or bovine; FIG. 7 legend says bovine) (protein, UniProt P17690 20-345, looked up)
Beta-2-glycoprotein 1: GRTCPKPDELPFSTVVPLKRTYEPGEQIVFSCQPGYVSRGGIRRFTCPLTGLWPINTLKCMPRVCPFAGILENGTVRYTTFEYPNTISFSCHTGFYLKGASSAKCTEEGKWSPDLPVCAPITCPPPPIPKFASLSVYKPLAGNNSFYGSKAVFKCLPHHAMFGNDTVTCTEHGNWTQLPECREVRCPFPSRPDNGFVNHPANPVLYYKDTATFGCHETYSLDGPEEVECSKFGNWSAQPSCKASCKLSIKRATVIYEGERVAIQNKFKNGMLHGQKVSFFCKHKEKKCSYTEDAQCIDGTIEIPKCFKEHSSLAFWKTDASDVKPC
reduction of the stimulation index of lymph node cells ([1]; mucosal administration to LDL-RD mice, Examples 3 and 6): up to 70% | suppression of primary cellular response (lymph node cell proliferation) to β2GPI ([1]; oral 5 doses of 500 μg per mouse, stimulation with 2.0 μg/ml β2GPI, LDL-RD mice): > 60% | influence on primary cellular response to BSA ([1]; oral administration, mice immunized with BSA, results not shown): did not influence | content of plaque-expressed β2GPI, mean percent occupancy (atherosclerotic lesions; oral 500 μg/dose, LDL-RD mice, data not shown): 15±5% | effect on number of CD3 positive cells or macrophage (Mac-1 positive) content of the fatty streaks (atherosclerotic lesions; oral administration, LDL-RD mice): No effect | number of CD3 positive cells (atherosclerotic lesions; oral administration, all groups, data not shown): 0-5 cells/plaque | suppression of primary cellular response (lymph node cell proliferation) to oxLDL (lymph node cells [2]; oral 5 doses of 500 μg per mouse, stimulation with 20 μg/ml oxLDL, LDL-RD mice): 74% | reduction in Stimulation Index of OxLDL-sensitized lymph node cells (lymph node cells [2]; oral, 3 doses of 100 μg, LDL-RD mice immunized with OxLDL): 87% | TGF-β levels in the conditioned medium of lymph node cells (lymph node cells [3]; cells from β2GPI-tolerized mice): below the detection threshold | levels of IFN-γ secreted by lymph node cells (lymph node cells [3]; cells from β2GPI-tolerized mice, stimulation with β2GPI, mean value): 1802 ± 588 pg/mL | Levels of IL-4 in medium relative to control animals (lymph node cells [3]; oral administration, immunized with β2GPI, cells incubated 48 h with β2GPI, p<0.01): three times higher | IL-10 secretion relative to BSA-treated controls (lymph node cells [3]; oral administration, immunized with β2GPI, in-vitro priming with β2GPI, p<0.05): 2.6 times | IgM, IgA, or IgG total antibody levels and isotype distribution [4]: did not alter | reduction in atherogenesis by oral tolerance [5]: approximately 30%
